Experimental data: PMC3477016, “The intrinsic GTPase activity of the Gtr1 protein from Saccharomyces cerevisiae” (BMC Biochemistry, 2012)

Substrate: Nc1nc2c(ncn2[C@@H]2O[C@H](COP(=O)(O)OP(=O)(O)OP(=O)(O)O)[C@@H](O)[C@H]2O)c(=O)[nH]1
Assay: radioactive GTPase assay, thin-layer chromatography, Lineweaver-Burk
Assay type: biochemical, Saccharomyces cerevisiae
Settings: pH 7.4, 37 °C, 5 mM MgCl2, 5 mM KCl, 25 mM HEPES, 100 mM sucrose, 60 min, labelled compound [α-32P]GTP 0.1-1.2 μM, no GAP, GEF or Gtr2

B1: Gtr1 (Saccharomyces cerevisiae S288C) (protein)
chain: MSSNNRKKLLLMGRSGSGKSSMRSIIFSNYSAFDTRRLGATIDVEHSHLRFLGNMTLNLWDCGGQDVFMENYFTKQKDHIFQMVQVLIHVFDVESTEVLKDIEIFAKALKQLRKYSPDAKIFVLLHKMDLVQLDKREELFQIMMKNLSETSSEFGFPNLIGFPTSIWDESLYKAWSQIVCSLIPNMSNHQSNLKKFKEIMNALEIILFERTTFLVICSSNGENSNENHDSSDNNNVLLDPKRFEKISNIMKNFKQSCTKLKSGFKTLILNNNIYVSELSSNMVCFIVLKDMNIPQELVLENIKKAKEFFQ
notes: full-length, N-terminal His6 tag (pET28a+ named in acknowledgements), expressed in E. coli, Ni-NTA purified, 36 kDa, monomer (without Gtr2); printed PDB id is of the Gtr1-Gtr2 complex of others
**Q.** B1 was tested. Which Km did it give?
**A.** Its Km is 1.0 µM.

**Q.** And the kcat?
**A.** Its kcat is 6.7e-05 s⁻¹.
